PMC12650144, “Interactive Role of the DHPR β1a SH3 Domain in Skeletal Muscle Excitation–Contraction Coupling” (Biomolecules, 2025)

Key:
Experiment in all cases: other fluorescence titration; tryptophan fluorescence quenching: intrinsic fluorescence of the β subunit or β1a-SH3 domain in the cuvette (sub-micromolar; 50 nM β1a-FL for the AID titration) monitored while titrating the II-III loop or peptides; excitation 280 nm, emission 340 nm; corrected for dilution and intrinsic fluorescence of the titrant; nonlinear regression
[1] = target: DHPR β1a subunit, full length (mouse) (UniProt Q8R3Z5)
[2] = target: DHPR β1a SH3 domain (β1a residues V101-P272) (mouse) (UniProt Q8R3Z5)
[3] = target: β2a HE to PG mutant (mouse) (UniProt Q8CC27)
[4] = target: β1a/β2a RT loop chimera, HE to PG mutant (mouse)

Sequence of DHPR β1a subunit, full length (mouse) (Q8R3Z5 other isoform, or with tags, fused parts or gaps): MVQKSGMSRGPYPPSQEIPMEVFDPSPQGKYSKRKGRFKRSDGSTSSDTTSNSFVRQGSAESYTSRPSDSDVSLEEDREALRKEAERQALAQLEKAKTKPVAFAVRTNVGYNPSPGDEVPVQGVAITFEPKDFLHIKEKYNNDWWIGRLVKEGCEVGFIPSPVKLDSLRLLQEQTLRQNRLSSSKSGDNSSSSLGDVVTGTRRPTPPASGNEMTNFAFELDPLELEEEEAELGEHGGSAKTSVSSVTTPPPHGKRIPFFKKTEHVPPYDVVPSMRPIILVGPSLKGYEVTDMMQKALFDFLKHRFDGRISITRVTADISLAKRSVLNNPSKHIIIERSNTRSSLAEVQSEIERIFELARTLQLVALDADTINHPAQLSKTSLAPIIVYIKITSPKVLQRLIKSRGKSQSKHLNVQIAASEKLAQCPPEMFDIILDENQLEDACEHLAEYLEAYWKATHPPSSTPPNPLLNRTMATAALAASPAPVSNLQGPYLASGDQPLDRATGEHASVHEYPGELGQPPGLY
Sequence of DHPR β1a SH3 domain (β1a residues V101-P272) (mouse) (Q8R3Z5 other isoform, or with tags, fused parts or gaps): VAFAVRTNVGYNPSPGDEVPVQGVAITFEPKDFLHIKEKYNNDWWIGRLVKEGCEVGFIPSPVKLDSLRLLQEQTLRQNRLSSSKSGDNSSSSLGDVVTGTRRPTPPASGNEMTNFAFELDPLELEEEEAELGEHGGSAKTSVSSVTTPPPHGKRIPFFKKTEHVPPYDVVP
Sequence of α1s II–III loop C region peptide (residues 720–765) (P07293 720-765): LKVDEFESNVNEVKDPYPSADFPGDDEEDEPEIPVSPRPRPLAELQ

Substance	Kd [1]	Kd [2]	Kd [3]	Kd [4]
α1s C binding peptide 2 (from UniProt P07293 748-764)	5.4 µM	3.8 µM		
sP1 F⟶T mutant (from UniProt P07293 733-745) (peptide)	4.6 µM	4.6 µM		
α1s II–III loop C region peptide (residues 720–765) (from UniProt P07293 720-765)			10.4 µM	8.7 µM
sP1 D⟶E mutant (from UniProt P07293 733-745) (peptide)	15 µM	17 µM		
sP1 A⟶P mutant (from UniProt P07293 733-745) (peptide)	4.5 µM	2.3 µM		
α1s C binding peptide 1 (from UniProt P07293 733-745)	3.6 µM	2.6 µM		
sP1 P⟶T mutant (from UniProt P07293 733-745) (peptide)	22 µM	19 µM		
DHPR α1s I-II loop AID peptide	0.0152 µM			
